Laboratory results from publication PMC9817130 (2023).

B1: P2B4 monoclonal antibody (IgG) (antibody, V domains shown)
VH: EVQLVESGGGLVQPGRSLRLSCAASGFNFDDYAMHWARQVPGKGLEWVSGISGNSGSVEYADSVKGRFAMSRDNAKNSLYLEMNSLRTEDTALYYCAKETTPWGIYRSGGLDVWGQGTTVTVSS
VL: DIQMTQSPSSLSASVGDRVTITCRASQSIHSFLSWYQQKPGKAPKLLINSASTLQSGVPPWFSGSGSGTDFTLTISSLQPEDFATYYCQQSYIAPWTFGQGTKVEIK
B2: P1D9 monoclonal antibody (IgG) (antibody, V domains shown)
VH: EVQLVQSGAEVKKPGSSVRVSCKASGGTFGDDSITWVRQAPGQGLEWMGGIFPLIGKTHYAQRFQGRLTVTADKSTSTAYMELSGLRSEDTAIYYCARDWGTTLTAFDIWGQGTMVTVSS
VL: DIQMTQSPSSLSASVGDTVTITCRAGQTINTFLNWYQQKPGKAPKLLIYAASTLQSGVPSRFSGSGSGTDFTLTINSLQPEDFATYYCQQSYSNLYTFSQGTKVEIK
B3: P3E6 monoclonal antibody (IgG) (antibody, V domains shown)
VH: EVQLLDSGGGLVQPGGSLRLSCAVSGFTFSNYAMNWVRQTPGKELEWVSAISGTGDDTHYADSVRGRFTISSDNSKNTVYLQMNSLRVEDTAIYYCAKAISRYPWGCLDYWGQGTLVTVSS
VL: not shown
B4: P2D9 monoclonal antibody (IgG) (antibody, V domains shown)
VH: EVQLVESGAEVKKPGSSVKVSCKASGDTFYTFDISWVRQAPGQGLEWMGGISPVFDAPNYAQKFQDRVTITADKSTSTAYMELSSLRSEDTAIYYCVKPTYSNYVWGIGAFDVWGQGTTVTVSS
VL: EIVLTQSPGTLSLSPGERATLSCRASQSVGNIYLAWYQQKPGQAPRLLIYGASTRATGIPDRFSGSGSGTDFTLTISRLEPEDFAVYYCQQYGDSLWTFGQGTKVEIK

Each binder was assayed against T1, SARS-CoV-2 WT RBD protein (Sino Biological) (SARS-CoV-2, UniProt P0DTC2 319-541) (assay: SPR).

Binder | koff [s⁻¹]
B1 | 1.37e-05
B2 | 7.68e-05
B3 | 0.00014
B4 | 4.34e-05

Target: T1, SARS-CoV-2 WT RBD protein (Sino …)
Experiment: SPR
Remark: another data set of the same source

Binder | Kd [nM]
B1 | 0.143
B2 | 0.188
B3 | 0.558
B4 | 0.202
